For the data set, the system named is mannose 6-phosphate receptors on the cell surface of fibroblasts.

As for “recombinant human acid α-glucosidase produced in the milk of transgenic mice”, the “restoration of acid α-glucosidase activity in GSD II patient fibroblasts after 20 hours with the enzyme” value is on record as “Under these conditions acid α-glucosidase of the patient fibroblasts was restored to the level measured in fibroblasts from healthy individuals” and the “restoration of acid α-glucosidase activity in GSD II patient fibroblasts, with 5 mM mannose 6-phosphate as a competitor” value was “Restoration by α-glucosidase form milk was inhibited by 5 mM mannose 6-phosphate”.

Values taken from US6858425.
